Reference: patent publication US20230080534A1 (SHANGHAI BIOTROY BIOTECHNIQUE, published 2023)
Values belong to the binder of their own block, whether it stands above or below them. No end group written: not given here.

Assays:
[1] = target: T1, human SEMG2 full-length protein (human, UniProt Q02383 24-582, limits assumed); assay: ELISA on SEMG2; the EC50 table prints no unit, the axis is log (antibody concentration, nM)
T1 construct: also called SEMG2 protein; semenogelin 2
T1 sequence: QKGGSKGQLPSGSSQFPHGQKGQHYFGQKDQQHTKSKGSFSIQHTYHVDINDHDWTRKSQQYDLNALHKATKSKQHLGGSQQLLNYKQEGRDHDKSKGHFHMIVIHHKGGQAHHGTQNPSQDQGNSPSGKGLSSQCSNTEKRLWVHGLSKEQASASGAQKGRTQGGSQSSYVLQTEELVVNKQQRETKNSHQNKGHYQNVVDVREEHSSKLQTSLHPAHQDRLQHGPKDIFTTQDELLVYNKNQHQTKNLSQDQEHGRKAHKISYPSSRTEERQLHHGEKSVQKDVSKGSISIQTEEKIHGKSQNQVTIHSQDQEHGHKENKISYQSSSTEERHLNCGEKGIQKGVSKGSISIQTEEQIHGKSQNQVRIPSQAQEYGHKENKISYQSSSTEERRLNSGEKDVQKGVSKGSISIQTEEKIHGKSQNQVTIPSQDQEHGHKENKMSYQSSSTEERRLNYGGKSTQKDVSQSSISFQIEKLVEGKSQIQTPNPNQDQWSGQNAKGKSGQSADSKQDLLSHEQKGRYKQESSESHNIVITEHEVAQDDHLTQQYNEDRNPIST

[2] = target: T2, BSA-conjugated human SEMG2 (497-509) polypeptide (human, also: coupled to BSA, site not given here); assay: ELISA on BSA-S2 (497-509); curve without upper plateau; the EC50 table prints no unit, the axis is log (antibody concentration, nM)
T2 peptide: QIEKLVEGKSQIQ

[3] = target: T2, BSA-conjugated human SEMG2 (497-509) …; assay: ELISA (FIG. 21B-D)
[4] = target: T1, human SEMG2 full-length protein; assay: ELISA (FIG. 21B-D)
[5] = target: T3, SEMG2(497-509) polypeptide QIEKLVEGKSQIQ (human); assay: ELISA, immobilized antigen SEMG2 (497-509)
T3 peptide: QIEKLVEGKSQIQ
From the text: (§1) To clearly distinguish the binding epitopes of blocking antibodies (i.e., antibodies that can inhibit the binding between SEMG2 and CD27) and non-blocking antibodies, a corresponding ELISA analysis method was established. […] Anti-mouse or anti-rabbit secondary antibodies were then used to detect the corresponding bound antibodies.

QIEKLVEGKAQIQ = target: T4, QIEKLVEGKAQIQ (not fully specified); assay: ELISA, immobilized peptide QIEKLVEGKAQIQ
T4 construct: alanine at this position
T4 peptide: QIEKLVEGKAQIQ
From the text: (§2) FIG. 20 depicts the value detected by ELISA, i.e., OD₄₅₀ absorbance. […] This experiment is used to determine the precise amino acid epitopes that different monoclonal antibodies bind to, and the relative importance of each amino acid to the binding antibody.

[6] = target: T1, human SEMG2 full-length protein; assay: biolayer interferometry (ForteBio Blitz or Gator)
Method: The equilibrium dissociation constant (KD) of the antibody of the present invention binding to human SEMG2 was determined by biolayer interferometry (ForteBio Bltz or Gator instrument). […] 100 μl of SD buffer, antibody and SEMG2 were added to a 96-well black polystyrene half area microplate, respectively. Select the sensor location based on the sample location layout. KD values were analyzed using molecular interaction analysis software. In the experiments of the assays, the affinity constants of murine monoclonal antibodies and human antibodies H88-67, H88-93 and H88-96 are shown in Table 8, and the affinity and dissociation curves of SEMG2 and corresponding proteins are shown in FIG. 25.

QIEKLVEAKSQIQ = target: T5, QIEKLVEAKSQIQ; assay: ELISA, immobilized peptide QIEKLVEAKSQIQ
T5 construct: member of the group m41; position 504 is glycine in SEMG2 and the sheet prints alanine there
T5 peptide: QIEKLVEAKSQIQ
From the text: as §2

QIEKLVAGKSQIQ = target: T6, QIEKLVAGKSQIQ (not fully specified); assay: ELISA, immobilized peptide QIEKLVAGKSQIQ
T6 construct: member of the group m41; the text speaks of glycine substitution, the sheet prints alanine
T6 peptide: QIEKLVAGKSQIQ
From the text: as §2
To further precisely define the exact epitopes (specific to the level of single amino acid) to which blocking antibodies MM02, MM05, MM07, MM08, MM13, MM14 bind, corresponding ELISA analysis method was established. […] Anti-mouse or anti-rabbit secondary antibodies were then used to detect the corresponding bound antibodies.

QIEKLVEGASQIQ = target: T7, QIEKLVEGASQIQ (not fully specified); assay: ELISA, immobilized peptide QIEKLVEGASQIQ
T7 construct: member of the group m41; the text speaks of glycine substitution, the sheet prints alanine
T7 peptide: QIEKLVEGASQIQ
From the text: as §2

AIEKLVEGKSQIQ = target: T8, AIEKLVEGKSQIQ (not fully specified); assay: ELISA, immobilized peptide AIEKLVEGKSQIQ
T8 construct: member of the group m41; the text speaks of glycine substitution, the sheet prints alanine
T8 peptide: AIEKLVEGKSQIQ
From the text: as §2

QIEKLVEGKSQAQ = target: T9, QIEKLVEGKSQAQ (not fully specified); assay: ELISA, immobilized peptide QIEKLVEGKSQAQ
T9 construct: member of the group m41; the text speaks of glycine substitution, the sheet prints alanine
T9 peptide: QIEKLVEGKSQAQ
From the text: as §2

QIAKLVEGKSQIQ = target: T10, QIAKLVEGKSQIQ (not fully specified); assay: ELISA, immobilized peptide QIAKLVEGKSQIQ
T10 construct: member of the group m41; the text speaks of glycine substitution, the sheet prints alanine
T10 peptide: QIAKLVEGKSQIQ

QIEKLVEGKSAIQ = target: T11, QIEKLVEGKSAIQ (not fully specified); assay: ELISA, immobilized peptide QIEKLVEGKSAIQ
T11 construct: alanine at this position
T11 peptide: QIEKLVEGKSAIQ
From the text: as §2

[7] = target: T1, human SEMG2 full-length protein; assay: ELISA, plate coated with SEMG2 protein, anti-mouse secondary antibody; the EC50 table prints no unit, the axis is log (antibody concentration, nM)
SEMG2(354-403) fragment = target: T12, SEMG2(354-403) fragment (human); assay: ELISA, immobilized antigen SEMG2 (354-403)
T12 peptide: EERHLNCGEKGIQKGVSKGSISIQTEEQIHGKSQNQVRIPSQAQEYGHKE
From the text: as §1

QIEKLAEGKSQIQ = target: T13, QIEKLAEGKSQIQ (not fully specified); assay: ELISA, immobilized peptide QIEKLAEGKSQIQ
T13 construct: member of the group m41; the text speaks of glycine substitution, the sheet prints alanine
T13 peptide: QIEKLAEGKSQIQ
From the text: as §2

QIEALVEGKSQIQ = target: T14, QIEALVEGKSQIQ (not fully specified); assay: ELISA, immobilized peptide QIEALVEGKSQIQ
T14 construct: member of the group m41; the text speaks of glycine substitution, the sheet prints alanine
T14 peptide: QIEALVEGKSQIQ
From the text: as §2

SEMG2(563-574) fragment = target: T15, SEMG2(563-574) fragment (human); assay: ELISA, immobilized antigen SEMG2 (563-574)
T15 peptide: VAQDDHLTQQYN
From the text: as §1

QIEKAVEGKSQIQ = target: T16, QIEKAVEGKSQIQ (not fully specified); assay: ELISA, immobilized peptide QIEKAVEGKSQIQ
T16 construct: alanine at this position
T16 peptide: QIEKAVEGKSQIQ
From the text: as §2

[8] = target: T1, human SEMG2 full-length protein; assay: ELISA, immobilized antigen SEMG2 (1-582)
From the text: as §1

SEMG2(442-453) fragment = target: T17, SEMG2(442-453) fragment (human); assay: ELISA, immobilized antigen SEMG2 (442-453)
T17 peptide: IHGKSQNQVTIP
From the text: as §1

QAEKLVEGKSQIQ = target: T18, QAEKLVEGKSQIQ (not fully specified); assay: ELISA, immobilized peptide QAEKLVEGKSQIQ
T18 construct: member of the group m41; the text speaks of glycine substitution, the sheet prints alanine
T18 peptide: QAEKLVEGKSQIQ
From the text: as §2

QIEKLVEGKSQIA = target: T19, QIEKLVEGKSQIA (not fully specified); assay: ELISA, immobilized peptide QIEKLVEGKSQIA
T19 construct: alanine at this position
T19 peptide: QIEKLVEGKSQIA
From the text: as §2

[9] = target: T3, SEMG2(497-509) polypeptide QIEKLVEGKSQIQ; assay: ELISA, immobilized peptide QIEKLVEGKSQIQ
From the text: as §2

[10] = target: T20, human CD27 (HA-tagged, expressed in HEK293 cells) (human, UniProt P26842 20-260, limits assumed); assay: co-immunoprecipitation, HEK293 co-transfection
T20 construct: Plasmid printed as 'pcDNA3-HA-CD2'; not shown: HA tag
T20 sequence (looked up): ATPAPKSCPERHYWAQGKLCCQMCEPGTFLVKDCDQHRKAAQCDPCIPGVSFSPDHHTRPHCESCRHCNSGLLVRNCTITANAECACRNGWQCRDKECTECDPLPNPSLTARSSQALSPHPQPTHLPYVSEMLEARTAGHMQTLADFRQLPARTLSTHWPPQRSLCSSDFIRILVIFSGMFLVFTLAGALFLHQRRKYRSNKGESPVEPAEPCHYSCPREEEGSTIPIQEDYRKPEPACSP
Method: In co-immunoprecipitation experiment, cells were lysed in IP buffer (Thermo Scientific) and Roche complete protease inhibitor for 10 minutes, followed by the addition of benzonase (sigma) for 25 minutes at room temperature. The lysate was then centrifuged at 15,000 rpm at 4° C. to remove the precipitate. The supernatant was then incubated with primary antibody slowly rotated overnight at 4° C., followed by the addition of protein A or protein G dynabeads and incubated at 4° C. for 2 hours, washed for 4 times in PBST (PBS with 0.01% Tween 20), eluted with 50 mM DTT in SDS sample buffer for 10 minutes at 100° C., separated with SDS, and immunoblotted as previously described.
To further confirm which part of SEMG-2 binds to CD27, fragments of SEMG2 protein were designed. The amino acid sequence of full-length SEMG2 protein (SEQ ID NO:1) was divided into 6 segments of sequences, fused with GFP and named as SEMG2-P1, SEMG2-P2, SEMG2-P3, SEMG2-P4, SEMG2-P5 and SEMG2-P6 (See Table 1 for specific sequences, with corresponding abbreviation as P1-P6 respectively). Plasmids expressing these amino acid sequences were co-transfected with CD27 into HEK293 cells, and co-immunoprecipitation experiments were performed to identify the main fragment of SEMG2 that binds to CD27.

- EC50 [1]: 0.619 nM
- EC50 [2]: 38.5 nM
- fold higher affinity than the parent antibody (H88-67) [3]: > 10 fold
- fold higher affinity than the parent antibody (H88-67) [4]: > 10 fold
B1: 67-6-67-6 (antibody, V domains shown)
VH: QVQLLESGGGVVQPGRSLRLSCAASGFTFSSYAMHWVRQASGKGLEWVAVISYDGSNKYYADSVKGRFTISRDNSKNTLYLQMNSLRAEDTAVYYCARMDGHGSPDYWGQGTLVTVSS
VL: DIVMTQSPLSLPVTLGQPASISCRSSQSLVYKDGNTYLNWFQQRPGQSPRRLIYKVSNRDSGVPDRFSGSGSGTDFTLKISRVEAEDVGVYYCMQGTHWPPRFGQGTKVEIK

- A450 absorbance [5]: 1.11
- OD450 absorbance (QIEKLVEGKAQIQ): 0.022
- Kd [6]: 1.44 nM
- OD450 absorbance (QIEKLVEAKSQIQ): 0.47
- OD450 absorbance (QIEKLVAGKSQIQ): 0.766
- OD450 absorbance (QIEKLVEGASQIQ): 0.621
- OD450 absorbance (AIEKLVEGKSQIQ): 0.813
- OD450 absorbance (QIEKLVEGKSQAQ): 0.588
- OD450 absorbance (QIAKLVEGKSQIQ): 0.776
- OD450 absorbance (QIEKLVEGKSAIQ): 1.18
- EC50 [7]: 0.507 nM
- A450 absorbance (SEMG2(354-403) fragment): 0.003
- binding result (SEMG2(354-403) fragment): no binding
- OD450 absorbance (QIEKLAEGKSQIQ): 0.804
- OD450 absorbance (QIEALVEGKSQIQ): 0.777
- binding result (SEMG2(563-574) fragment): no binding
- OD450 absorbance (QIEKAVEGKSQIQ): 0.161
- A450 absorbance [8]: 1.12
- A450 absorbance (SEMG2(442-453) fragment): 0.007
- binding result (SEMG2(442-453) fragment): no binding
- OD450 absorbance (QAEKLVEGKSQIQ): 0.54
- OD450 absorbance (QIEKLVEGKSQIA): 1.23
- OD450 absorbance [9]: 1.17
B2: MM14 (antibody, IgG2b, V domains shown)
VH: QVQLKESGPGLVAPSQSLSITCTVSGFSLTSYAVSWVRQPPGKGLEWLGIIWGDGSTNYHSALISRLSISKDNSKSQVFLKLNSLQTDDTATYYCAKQERFSDGYYDGFAYWGQGTLVTVSA
VL: QIVLTQSPAIMSASPGEKVTITCSASSSVSYMHWFQQKPGTSPKLWIYSTSNLASGVPARFSGSGSGTSYSLTISRMEAEDAATYYCQQRSSYPFTFGSGTKLEIKR

- binding result [10]: no binding
B3: SEMG2-P3 fused with GFP (other)
chain: KAHKISYPSSRTEERQLHHGEKSVQKDVSKGSISIQTEEKIHGKSQNQVTIHSQDQEHGHKENKISYQSSSTEERHLNCGEKGIQKGVSKGSISIQTEEQIHGKSQNQVRIPSQAQ
notes: not shown: GFP fusion partner

- binding result [10]: no binding
B4: SEMG2-P2 fused with GFP (other)
chain: QNPSQDQGNSPSGKGLSSQCSNTEKRLWVHGLSKEQASASGAQKGRTQGGSQSSYVLQTEELVVNKQQRETKNSHQNKGHYQNVVDVREEHSSKLQTSLHPAHQDRLQHGPKDIFTTQDELLVYNKNQHQTKNLSQDQEHGR
notes: not shown: GFP fusion partner
